Results reported in patent US20220233690A1.

Biological target: CD40 (human) (UniProt P25942)
Assay: cell-based or functional assay

UniProt P25942, sequence (P25942 21-277): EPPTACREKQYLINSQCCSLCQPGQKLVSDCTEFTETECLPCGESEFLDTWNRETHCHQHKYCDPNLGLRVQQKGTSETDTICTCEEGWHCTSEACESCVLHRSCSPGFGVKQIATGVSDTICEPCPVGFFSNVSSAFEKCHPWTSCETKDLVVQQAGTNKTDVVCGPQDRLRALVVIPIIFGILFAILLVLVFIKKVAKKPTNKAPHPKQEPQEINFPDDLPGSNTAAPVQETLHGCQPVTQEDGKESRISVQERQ

T cell activation (percentage of live CD2+CD16-CD8+ cells expressing CD25) (% below CD20×CD3 (REGN1979) alone): 35
Substance: Anti-CD40 antibody (IgG1 mutant, REGN3794)
